The results in this text go back to a protein production outcome set (Wang et al. 2014).

The data set is described as follows: label from the status in PepcDB records.
As to “MSLVSLPGLPAMISEISKRNNLPTTAVEEALREALLKGYERFRRSQLMGHQFPEEYFNNFEVELDTEEEGFRVLSTKRIVEEVENSDQQISLKEVLEVAEEAQLGDEVVLDVTPEQKDFGRMAAIQTKQVLLQKLRDQQRKIIQEEFQDLEGTVLNARALRFERQSIIVAVQSSFGQPEVEAELPKREQLPNDNYRANSTFRVYLKRVREGSQRGPQLVVSRAAAGLVVDLFSVEVPEIEEEVVRIVAVAREAKPPSPSVGPRTKIAVDTLERDVDPVGACIGARGSRIHAVVNELRGEKIDVIRWSPDPATYIAQALSPARVDQVYLIHAEERHALVIVAEDQLSLAIGKEGQNVRLAARLTGWKIDIKDPETYARDKEAIEQSILERAAASAQARAEREAAEQEAQAKLEAEMAALEAEEAEELEETPEAIAEVEEEVEEWDQDQGPELGEEEELSLEHHHHHH”, the protein production entry was “not failed”.

Regarding “MTGFDADDAAALIQSYVDDHGLLSFLGVSVEDASDGEMRLRIPYHEKLTNHGPGEGDVHGGIAATLIDTAGGLAVRSALPKPVAANVATIDLNVSYLRPARGDLIADASVVRVGSTVGVAEISVVTPADTADAEPTEVAVGRGSFRVFRDDLEHHHHHH”, the protein production result was “failed”.

For “LTECLSQGEDIRLSKILIFAGTTEGRKLSEHLCKRGIEHTVCVATEYGEIVLHENPFAHVHMGRMDSEGMRSFFAEQKCKLIVDATHPYAAIVTENIKQAVYAFNEAHAVTDNQADSSISENIEYVRLKRDTDISADYDNIRYFEDNEACAKALNNTDGNILLTTGSKELSVYCKTSDVRERLYVRVLPGLESISLCMHNDITGKHILALQGPFSTQLNEALIDQYDIRCLVTKKSGAAGGFIEKIAAAKNKNIPVYIVGQSVQDDGMSFEAVCEYIDSKYNKLHIMLAGIGMGNDACMTKAVSDAIESADIILGASRMIEKYSAKIDKKPYYLAEQIIPYLYEICADTAKISNVLILFSGDTGFYSGSRKLYLAIKNEISEGKLNADVSILPGISSVSYMAAAVGETYNDAYICSIHGVKLSNITSRISHHAKTFMLMSGVRDVNMLGHLLSSDERYGLQKCSVTVGYQLSYPDENISQLSPQECTKLKREGLYICMIKNPNPVAKNVTPQLSDAAFIREKVPMTKEEIRHVSICKLHLKSDSVLYDVGSGTGSIAVEAASLSDDMEVYAIEQKENAVQLITKNKEKHGLENIHVINAKAPDGMENLPVPTHAFIGGSSGNLKEIIEALKAKNPHIRIVINAISMETICEIKEIMSAYNVKNEDIVQLQVSRSKQIGHYHLMQAENPVWICSFEF”, the protein production result is “failed”.

In the case of “MGNFHATTIFAVHHNGECAMAGDGQVTMGNAVVMKHTARKVRKLFQGKVLAGFAGSVADAFTLFEMFEGKLEEYNGNLQRAAVEMAKQWRGDKMLRQLEAMLIVMDKTTMLLVSGTGEVIEPDDGILAIGSGGNYALSAGRALKQYASEHLTAKQIAKASLEIAGDICVYTNHNIIVEEL”, the protein production entry was “not failed”.
